B1: Pistol ribozyme (parent)
chain: GGGUCGUUGUUCCAUAAUCGCGUGGAUAUGGCACGCAAGUUUCUACCGGGCACCGUAAAUGUCCGACUGGAGCCGUUCGGGCGGCUAUAAACAGACCUCAGGCCCGAAGCGUGGCGGCACCUGCCGCCGGUGGUAAAAAAGAUCGGAAGAGCACACGUCU

Variants of: B1
Test: aptazyme ON/OFF ratio, guanine; higher = stronger switching; co-transcriptional cleavage with and without guanine

Variant | aptazyme ON/OFF ratio
GGGUCGUAAGUUCAUAAUCGCGUGGAUAUGGCACGCAAGUUUCUACCGGGCACCGUAAAUGUCCGACUGGAGCCGUUCGGGCGGCUAUAAACAGACCUCAGGCCCGAAGCGUGGCGGCACCUGCCGCCGGUGGUAAAAAAGAUCGGAAGAGCACACGUCU [U8A G9A U10G C12U] | 1.5
GGGUCGUAAGCGCAUAAUCGCGUGGAUAUGGCACGCAAGUUUCUACCGGGCACCGUAAAUGUCCGACUGGAGCCGUUCGGGCGGCUAUAAACAGACCUCAGGCCCGAAGCGUGGCGGCACCUGCCGCCGGUGGUAAAAAAGAUCGGAAGAGCACACGUCU [U8A G9A U10G U11C C12G] | 1.2
GGGUCGUAAGCACAUAAUCGCGUGGAUAUGGCACGCAAGUUUCUACCGGGCACCGUAAAUGUCCGACUGGAGCCGUUCGGGCGGCUAUAAACAGACCUCAGGCCCGAAGCGUGGCGGCACCUGCCGCCGGUGGUAAAAAAGAUCGGAAGAGCACACGUCU [U8A G9A U10G U11C C12A] | 1.15
GGGUCGUAAGCUCAUAAUCGCGUGGAUAUGGCACGCAAGUUUCUACCGGGCACCGUAAAUGUCCGACUGGAGCCGUUCGGGCGGCUAUAAACAGACCUCAGGCCCGAAGCGUGGCGGCACCUGCCGCCGGUGGUAAAAAAGAUCGGAAGAGCACACGUCU [U8A G9A U10G U11C C12U] | 1.07
GGGUCGUAAGACCAUAAUCGCGUGGAUAUGGCACGCAAGUUUCUACCGGGCACCGUAAAUGUCCGACUGGAGCCGUUCGGGCGGCUAUAAACAGACCUCAGGCCCGAAGCGUGGCGGCACCUGCCGCCGGUGGUAAAAAAGAUCGGAAGAGCACACGUCU [U8A G9A U10G U11A] | 1.02
GGGUCGUAAGCCCAUAAUCGCGUGGAUAUGGCACGCAAGUUUCUACCGGGCACCGUAAAUGUCCGACUGGAGCCGUUCGGGCGGCUAUAAACAGACCUCAGGCCCGAAGCGUGGCGGCACCUGCCGCCGGUGGUAAAAAAGAUCGGAAGAGCACACGUCU [U8A G9A U10G U11C] | 1.05
GGGUCGUAAGUCAAUAAUCGCGUGGAUAUGGCACGCAAGUUUCUACCGGGCACCGUAAAUGUCCGACUGGAGCCGUUCGGGCGGCUAUAAACAGACCUCAGGCCCGAAGCGUGGCGGCACCUGCCGCCGGUGGUAAAAAAGAUCGGAAGAGCACACGUCU [U8A G9A U10G C13A] | 1.29
GGGUCGUAAGUCGAUAAUCGCGUGGAUAUGGCACGCAAGUUUCUACCGGGCACCGUAAAUGUCCGACUGGAGCCGUUCGGGCGGCUAUAAACAGACCUCAGGCCCGAAGCGUGGCGGCACCUGCCGCCGGUGGUAAAAAAGAUCGGAAGAGCACACGUCU [U8A G9A U10G C13G] | 1.21
GGGUCGUAAGUCUAUAAUCGCGUGGAUAUGGCACGCAAGUUUCUACCGGGCACCGUAAAUGUCCGACUGGAGCCGUUCGGGCGGCUAUAAACAGACCUCAGGCCCGAAGCGUGGCGGCACCUGCCGCCGGUGGUAAAAAAGAUCGGAAGAGCACACGUCU [U8A G9A U10G C13U] | 1.29
GGGUCGUAAGCGUAUAAUCGCGUGGAUAUGGCACGCAAGUUUCUACCGGGCACCGUAAAUGUCCGACUGGAGCCGUUCGGGCGGCUAUAAACAGACCUCAGGCCCGAAGCGUGGCGGCACCUGCCGCCGGUGGUAAAAAAGAUCGGAAGAGCACACGUCU [U8A G9A U10G U11C C12G C13U] | 1.18
GGGUCGUAAGCGGAUAAUCGCGUGGAUAUGGCACGCAAGUUUCUACCGGGCACCGUAAAUGUCCGACUGGAGCCGUUCGGGCGGCUAUAAACAGACCUCAGGCCCGAAGCGUGGCGGCACCUGCCGCCGGUGGUAAAAAAGAUCGGAAGAGCACACGUCU [U8A G9A U10G U11C C12G C13G] | 1.14
GGGUCGUAAGCGAAUAAUCGCGUGGAUAUGGCACGCAAGUUUCUACCGGGCACCGUAAAUGUCCGACUGGAGCCGUUCGGGCGGCUAUAAACAGACCUCAGGCCCGAAGCGUGGCGGCACCUGCCGCCGGUGGUAAAAAAGAUCGGAAGAGCACACGUCU [U8A G9A U10G U11C C12G C13A] | 1.16
GGGUCGUAAGAGCAUAAUCGCGUGGAUAUGGCACGCAAGUUUCUACCGGGCACCGUAAAUGUCCGACUGGAGCCGUUCGGGCGGCUAUAAACAGACCUCAGGCCCGAAGCGUGGCGGCACCUGCCGCCGGUGGUAAAAAAGAUCGGAAGAGCACACGUCU [U8A G9A U10G U11A C12G] | 1.24
GGGUCGUAAGAUCAUAAUCGCGUGGAUAUGGCACGCAAGUUUCUACCGGGCACCGUAAAUGUCCGACUGGAGCCGUUCGGGCGGCUAUAAACAGACCUCAGGCCCGAAGCGUGGCGGCACCUGCCGCCGGUGGUAAAAAAGAUCGGAAGAGCACACGUCU [U8A G9A U10G U11A C12U] | 1.06
GGGUCGUAAGAACAUAAUCGCGUGGAUAUGGCACGCAAGUUUCUACCGGGCACCGUAAAUGUCCGACUGGAGCCGUUCGGGCGGCUAUAAACAGACCUCAGGCCCGAAGCGUGGCGGCACCUGCCGCCGGUGGUAAAAAAGAUCGGAAGAGCACACGUCU [U8A G9A U10G U11A C12A] | 1.17
GGGUCGUAAGUUUAUAAUCGCGUGGAUAUGGCACGCAAGUUUCUACCGGGCACCGUAAAUGUCCGACUGGAGCCGUUCGGGCGGCUAUAAACAGACCUCAGGCCCGAAGCGUGGCGGCACCUGCCGCCGGUGGUAAAAAAGAUCGGAAGAGCACACGUCU [U8A G9A U10G C12U C13U] | 1.41
GGGUCGUAAGUUAAUAAUCGCGUGGAUAUGGCACGCAAGUUUCUACCGGGCACCGUAAAUGUCCGACUGGAGCCGUUCGGGCGGCUAUAAACAGACCUCAGGCCCGAAGCGUGGCGGCACCUGCCGCCGGUGGUAAAAAAGAUCGGAAGAGCACACGUCU [U8A G9A U10G C12U C13A] | 1.34
GGGUCGUAAGUUGAUAAUCGCGUGGAUAUGGCACGCAAGUUUCUACCGGGCACCGUAAAUGUCCGACUGGAGCCGUUCGGGCGGCUAUAAACAGACCUCAGGCCCGAAGCGUGGCGGCACCUGCCGCCGGUGGUAAAAAAGAUCGGAAGAGCACACGUCU [U8A G9A U10G C12U C13G] | 1.17

— the RNAGym collection of RNA variant scans (doi:10.1021/acssynbio.7b00057)
